test: yeast display, Sf9 membrane polyspecificity reagent, FACS + sequencing; frameworks hold sequencing errors
Method in brief: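 Synthetic nanobody libraries on Saccharomyces cerevisiae BJ5465 were galactose-induced for 36–48 hours, stained 1 hour at 4 °C with 10% biotinylated, detergent-solubilized Sf9 membrane reagent and enriched on streptavidin microbeads. FACS then separated cells into low and high (top ~1%) gates by anti-HA (expression) and streptavidin (reagent binding) fluorescence. Genes were colony-PCR amplified, MiSeq 2 × 250 sequenced and CDR-length filtered. A clone's polyreactivity label is that of its gate of origin.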

Sequence | polyreactivity (PSR sort gate)
QVQLQESGGGLVHAGGSLRLSCAASGTISFINMMGWYRQAAGRERELVASINFGANTNYADSVKGRFTISRDNAKNTVYLQMNSLKPEDTAVYYCAVYDFDAYTLYYWGQGTLVTVSS | high polyreactivity
QVQLQESGGGLVHPGGSLRLSCAASCSISHYIFMGWYRQAPGKEREFVAGIGYGGTTNYADSVKGRFTISRDNAKNTVYLQMNSLKPEDTAMYYCAAREATEFYLYYWGQGTQVTVSS | low polyreactivity
QVQLQESGGGLVKAGGSLRLSCAASGNISNHNDMGWYRQAPGKEREFVAGITAGGNTNYADSVKGRFTISRDNAKNTVYLQMNSLKPEDTAVYYCAAYPDYAKSYGYWGQGTQATVSS | low polyreactivity
QVQLQESGGGLVKAGGSLRLSCAASGNISPRDAMGWYRQAPGEERDLVASNAYSAITYYADGVKGRYSISRDNAKNTVYLQMNSLKPEDTEVYYCAVYQFTYPVFPAYWGQGTQVSVSS | low polyreactivity
QVQLQESGGGLVLAGGSLRLSCAASGSIFLFYTMGWYRQAPVKEREFVAGITLRTPTYNADSVKGRFTISRDNVKNTVYLQMNSLKPEDTAVYYCAVAVGHYTEIWYWGQGTQVTMSS | high polyreactivity
QVQLQESGGGLVQAGDSQRLSCAASGNIFRFTDMGWYRKAPGKERELVAAINAGSTTYYADSVKGRFTISRDNAKNTVYLQMNSLKPEDTAVYYCAVYYLGSGTFGYWGQGAQVTVSS | high polyreactivity
QVQLQESGGGLVQAGGCLSCTASGTIFGQGDMGWYRQAPGKERELVATINDGASTYYADSVKGRFTISRDKAKNTVNLQKNSLKPDDTAVYYCAVFTDITTYFGYWGQGTQVTVSS | low polyreactivity
QVQLQESGGGLVQAGGGLRLSCAASGTISGPHVMGWYRQAPGEEREFVAAINVGANTYYADNVKGRFTISRDNAKNTVYLQMNSLKPEDTAVYYCAAVYYGDIGHEYWGQGTQVTVSC | low polyreactivity
QVQLQESGGGLVQAGGGLRLSCAASGTISGPHVMGWYRQAPGKEREFVAAINVGANTYYADNVKGRFTISRDNAINTVYLQMNSLKPEDTAVYYCAAVYYGDIGHEYWGQGTQVTVSC | low polyreactivity
QVQLQESGGGLVQAGGNPRLSCAASGNSSWSAHMGWYRQTPGKERELVASNTAGTSTNYADSVKGRFTISRDNAKNTVYLQMNSLKPEDTAVSYCATLGYFSASRTDYDYWGQGTQVTVSS | low polyreactivity
QVQLQESGGGLVQAGGRLRLSCAASGNIFEADIMGWYNKAQGKERELVASITDGGSTNYADSVKGRFTINRYNAKNNVYLQMNSLKPEDTAVYYCAAIAYPDIPTYFDYDSDYFYWGQGTQVTVSS | high polyreactivity
QVQLQESGGGLVQAGGSLGCAASGNISTRSEMGWYRQAPGNEREFVATINSGGLTNYADSVKGRFTISRDNAKNTVNLRMNSLKPEDTAVYYRAVYGYFSDPYDYWGQGTQVTVSS | low polyreactivity
QVQLQESGGGLVQAGGSLLSCAASGTISYYREMGWYRQAPGKERELVAGIGVGTITYYADSVKGRFTISRDNAKNTVYLQMNSLKPEDTAVYYCAALIDGNDSHAYWGQGTQVTVSS | low polyreactivity
QVQLQESGGGLVQAGGSLRLSCAASCTISQEDWMGWYRQAPCKEREFVASIGLGSNTNYADSLKGRFTISRDNAKNTVYLKMNSLKPEYTAVYYCASEENLAYYFKYYYWGQGTQVTVSS | low polyreactivity
QVQLQESGGGLVQAGGSLRLSCAASDYIFPYKPKGWYRQAPGKEREFVATIATGGSTNYADSVKGRFTISRDNAKNTVYLQMNSLKPEDTAVYYCAVYGGPAGYLTYRGQGTQVTVSS | high polyreactivity
QVQLQESGGGLVQAGGSLRLSCAASGFIFARNYIGWYRQAPGKERELVAGIGEGASTNYADSVKGRFTISRDNAKNTVYLQMNSLEPEDTAVYYCAVGDTVLGYHYYWGQGTQVTVSN | low polyreactivity

Sequence | polyreactivity (PSR sort gate)
QVQLQESGGGLVQAGGSLRLSCAASGFIFARNYMGWNRQAPGKERELVAGIGVGASTNYADSVKGRFTISRDNAKNTVYLQINSLEPEDTAVYYCAVGDTVLGYHYYWGQGTQVTVSI | low polyreactivity
QVQLQESGGGLVQAGGSLRLSCAASGHISIKLQRGWYRAAPGKERELVATINLGAITYYADSVKGLITNSRDNAKNTVYLQLNSLKPEDTAVYYCAARWRSGFTSGDYWGQGTQVTVSS | low polyreactivity
QVQLQESGGGLVQAGGSLRLSCAASGIIFDNPNMGWYRQAPGKERELVATINSGATTNYADSVKGRFTISRDNENNTVYLQMNSLIPEDTAVYYCAVDLSPTYFYFWGQGTQVTVSS | high polyreactivity
QVQLQESGGGLVQAGGSLRLSCAASGNIFLGDTMGWYRQAPGKEREFVAGIARGGNPYYADSVKGRFTISRNNAKNTVFLQKNSLKPEDTAVHYCAVQRSHASDYNYWGQGTQVTVSS | low polyreactivity
QVQLQESGGGLVQAGGSLRLSCAASGNISVTGFMGWYRQAPGKERELVASIGIGGTTYYADSVKGRFSISRDNAKNTVYVQMNSLKPEDTAVYYCAARYLYYAYSYWGQGTQVTVRS | low polyreactivity
QVQLQESGGGLVQAGGSLRLSCAASGNISVTGFMGWYRQAPVKERELVASIGIGGTTYYADSVKGRFSISRDNAKNTVYLQMNSLKPEDTAVYYCAARYLYYAYSYWGQGSQVTVSS | low polyreactivity
QVQLQESGGGLVQAGGSLRLSCAASGSIFADVQMGWYRQAPGKERELVASINFRGTTSYYADSVKGRFTISRDNAKNTVYLQMSSLKPEETEVYYCAVGRSEGGDFAYWGQGTHVTVSS | low polyreactivity
QVQLQESGGGLVQAGGSLRLSCAASGSIFDGFNMGWYRQAQGKEREFVAAISYGASTYYADSVKGRFTVSRDNAKNSVYLQMNSLKPEDTAVYYCAVYDELYHVLVYWGRGTQVTVSS | low polyreactivity
QVQLQESGGGLVQAGGSLRLSCAASGSIFDYVSMGWYRQAPGEERELVVTITLGSNTYYADSVKGRFTISSDIAKNSVYLQMNSLNPEDTAVYYCAASALWGYVYPYWGLGTQVTVSS | high polyreactivity
QVQLQESGGGLVQAGGSLRLSCAASGSIFHLHIMCWYRQAPGKESESVAAISYGTSTYYADSVKGRFTICRDNAKNTVYLQMNSPKPDDTAVYYCAALFLVSKHHHYWGEGTQVTVSS | low polyreactivity
QVQLQESGGGLVQAGGSLRLSCAASGSIFVSVTMGWYRQAPGKERELGASIGRGSTTNHADSVKGRFTISRDNAKNIVYLLMNSLKPEDTAVYYCAALESYGKYHGYWGQGTLVTVSS | low polyreactivity
QVQLQESGGGLVQAGGSLRLSCAASGSIFYVYGMGWYRLAPGKVRELVAGINAGTNTNYADSVRGRFTISRDNAKNTVHLQMTSLNPEETAVYYCAADGNGYQAHEYWGQGTQVTVSS | high polyreactivity
QVQLQESGGGLVQAGGSLRLSCAASGSISGPQVMGWYRQAPGKEREFVAAINVGANTYYADNVKGRFTISRDNAKNTVYLQMTSLKPEDTAVYYCAAVYYGDIGHEYWGQGTQVTVSC | low polyreactivity
QVQLQESGGGLVQAGGSLRLSCAASGSISHYIFMCWYRQSPGKEREFVAGIGYGGTTNYADSVKGRFTISRDNAKNTVYLQMISLTPEDTAMYYCAAREATEFYLYYWGQGTQVTVSS | low polyreactivity
QVQLQESGGGLVQAGGSLRLSCAASGSISHYIFMGWYRQAPGKEREFVAGIGYGGTTNYADSVKGRFTISRDNAINTVYLQMNSLKPEDTAMYYCAAREATEFYLYYWGQGTQVTVSS | low polyreactivity
QVQLQESGGGLVQAGGSLRLSCAASGSISRLDYMGWYRQASGKERELVAAIDNGSTTYYADSVKGRLTISRDNAKYTVYLQMNSLKTEDTAVYFCAAVRGRGGTHAYWGQGTQVTVSG | low polyreactivity

— the nanobody polyreactivity screen of Harvey et al. (2022)
